According to US20160039936A1, “FIBROBLAST GROWTH FACTOR RECEPTOR INHIBITION FOR THE TREATMENT OF DISEASE” (UNIVERSITY OF MIAMI, priority 2011, published 2016):

B1: FGF2: recombinant mouse FGF2 (Ala11-Ser154) (R&D Systems) (protein)
chain: ALPEDGGAAFPPGHFKDPKRLYCKNGGFFLRIHPDGRVDGVREKSDPHVKLQLQAEERGVVSIKGVCANRYLAMKEDGRLLASKCVTEECFFFERLESNNYNTYRSRKYSSWYVALKRTGQYKLGSKTGPGQKAILFLPMSAKS
B2: FGF23: recombinant mouse FGF23, 6His-tagged Tyr25-Val251 (Arg179Gln) (R&D Systems) (protein)
chain: YPDTSPLLGSNWGSLTHLYTATARTSYHLQIHRDGHVDGTPHQTIYSALMITSEDAGSVVITGAMTRRFLCMDLHGNIFGSLHFSPENCKFRQWTLENGYDVYLSQKHHYLVSLGRAKRIFQPGTNPPPFSQFLARRNEVPLLHFYTVRPRRHTQSAEDPPERDPLNVLKPRPRATPVPVSCSRELPSAEEGGPAASDPLGVLRRGRGDARGGAGGADRCRPFPRFV
modifications: left off: small tags and cut ends

Key:
[1] = tested on: neonatal mouse ventricular myocytes (NMVM); assay: Hypertrophic growth and β-MHC of isolated NMVM (wild-type or FGFR4−/−); type: cell-based; conditions: 48 h
Description: NMVM were isolated enzymatically (Kreusser et al., 2014). Briefly, hearts from 1-3 day-old mice were harvested, minced in PBS/glucose and further digested with collagenase type 2 (0.2% w/v) and DNase (0.05% w/v) on a rotary shaker at 37° C. for 11 minutes. Cells were then released from the tissue by triturating the suspension twice with a standard 10 ml plastic serological pipette, transferred to DF10 medium (Dulbecco's Modified Eagle Medium/Ham's Nutrient Mixture F12 adjusted to 17 mM NaHCO2 containing 2 mM L-glutamine, 1% P/S and 10% FBS), and stored on ice. The remaining tissue was further incubated in PBS/glucose/collagenase/DNase solution on a rotary shaker at 37° C. for 11 minutes. The trituration and incubation steps were repeated 5-7 times until the tissue was completely dissolved. Cells were pelleted at 300 g for 5 minutes, resuspended in DF20 media (Dulbecco's Modified Eagle Medium/Ham's Nutrient Mixture F12 adjusted to 17 mM NaHCO2 containing 2 mM L-glutamine, 1% P/S and 20% FBS), and preplated for 1 hour to eliminate fibroblasts. Remaining cells were counted using a hemocytometer and plated on glass and plastic surfaces, which were coated with laminin (Sigma-Aldrich; 10 μg/ml in PBS) at room temperature for 1 hour prior to plating. For immunofluorescence analysis, 3×10^5 cells were seeded per well on glass coverslips in 24-well plates. For Western blot analyses of total protein extracts, 5×10^6 cells were seeded in 10 cm-culture dishes. Cells were left undisturbed in DF20 medium at 37° C. for 72 hours, starved overnight with DF medium (Dulbecco's Modified Eagle Medium/Ham's Nutrient Mixture F12 adjusted to 17 mM NaHCO2 containing 2 mM L-glutamine, 1% P/S), and treated in DF medium with recombinant FGF23, FGF2 (both at 100 ng/ml) or AngII (1 μM, Sigma-Aldrich) for 48 hours.
HEK293 cells, NRVM or NMVM were treated with growth factors for 30 minutes to analyze activation of signal transduction mediators, or for 48 hours to analyze expression levels of hypertrophic marker proteins. Cells were scraped from 6-well plates using 500 μl CHAPS extraction buffer (20 mM Tris-HCl pH7.5, 500 mM NaCl, 0.5% CHAPS, protease inhibitor cocktail (Roche), protein phosphatase inhibitors [Sigma-Aldrich]) and incubated on ice for 30 minutes. The cell lysate was centrifuged at 14,000 rpm and 4° C. for 30 minutes, and the supernatant boiled in sample buffer and analyzed by SDS-PAGE and immunoblotting. For protein extraction from mouse hearts, tissue was isolated, minced and homogenized in RIPA extraction buffer (50 mM Tris-HCl pH 7.5, 200 mM NaCl, 1% Triton X-100, 0.25% DOC, 1 mM EDTA, 1 mM EGTA, protease and phosphatase inhibitors) at 1:10 (w:v), and protein lysates were prepared as described above.
Cultured cells were fixed in 2% PFA (in 5 mg/ml sucrose) for 5 minutes and permeabilized in 1% Triton X-100 (in PBS) for 10 minutes. We analyzed hypertrophic growth of isolated NRVM and NMVM on laminin-coated glass coverslips after 48 hours of treatment with growth factors. For FGFR4 expression and localization analyses, untreated NMVM from wild-type and FGFR4^−/− mice were immunolabeled. The mouse monoclonal antibody against sarcomeric α-actinin (EA-53; Sigma-Aldrich) was used at 1:1,000, and rabbit polyclonal anti-FGFR4 (C-16; Santa Cruz) at 1:50. Cy3-conjugated goat-anti mouse and Alexa488-conjugated goat-anti rabbit (Jackson Immuno Research) were used as secondary antibodies at 1:300. To visualize nuclei, fixed cells were incubated with 4′,6-diamidino-2-phenylindole (DAPI; 400 ng/ml in PBS) for 10 minutes. Immunofluorescence images were taken on a Leica TCS-SP5 confocal microscope with a 63× oil objective.
Myocyte cross-sectional area was measured based on α-actinin-positive staining using Leica AF6000 fluorescence software. […]

C57BL/6 mice = assay: Intravenous injection of FGFs (with or without Fc-FGFR decoy receptors) in mice; type: in vivo, mouse; conditions: FGF23 40 μg/kg i.v. twice daily 5 days
Description: Twelve-week old adult C57BL/6 mice underwent tail vein injections using standard protocols as previously described for the systemic delivery of plasmid DNA (Faul et al., 2008). Briefly, mice were placed in a restrainer and 40 μg/kg of FGF23 dissolved in 200 μl of PBS were injected into the tail vein of 5 mice twice daily with eight hours in between injections for 5 consecutive days. Four mice underwent the same injection schedule using 200 μl of PBS alone as negative control. On the morning of the 6th day, 16 hours after the final tail vein injections, animals were sacrificed and the hearts were isolated and prepared using the same protocol as described above.
Short-axis cardiac sections were used to quantify myocardial thickness by measuring the distance from the inner to the outer myocardial zone at the mid-chamber zone. […] Since klothro-ablated kl/kl mice display severe growth retardation with small hearts (Kuro-o et al., Nature, 390(6655):45-51, 1997), we also measured relative wall thickness calculated as two times the anterior wall thickness divided by left ventricular internal diameter. Total RNA was isolated from flash frozen hearts using TRIzol (Invitrogen) and RT-PCR analyses were performed as described above.
We measured cross-sectional surface area of cardiac myocytes in paraffin-embedded short-axis sections of the heart. Briefly, 7 μm thick sections were deparaffinized according to our established protocols. To specifically label cardiac myocytes, we used mouse monoclonal MF20 antibody against sarcomeric myosin at 1:200 and Cy5-conjugated donkey-anti mouse (Invitrogen) as secondary antibody at 1:400. To visualize nuclei, fixed tissue was incubated with 4′,6-diamidino-2-phenylindole (DAPI; 400 ng/ml in PBS) for 5 minutes. To visualize cellular borders, fixed tissue was incubated with wheat germ agglutinin (WGA) conjugated to Alexa Fluor 555 (Invitrogen) at 1 mg/ml in PBS containing 10 mM sodium azide. Immunofluorescence images were taken on a Leica TCS-SP5 confocal microscope with a 63× oil objective. Leica AF6000 fluorescence software was used to quantify cross-sectional cell surface area of 25 cells per field at four fields along the mid-chamber free wall based on WGA-positive staining.
Next, we wanted to determine the effectiveness of this FGFR trapping system on FGF-induced LVH in mice. To our knowledge, Fc decoy receptors have not yet been used to study FGFR function in vivo in any biological context, but served as valuable tools to analyze the functions of other receptor tyrosine kinases, like receptors for vascular endothelial growth factor (VEGFR) and their role in tumor growth and metastasis. We used similar Fc-FGFR concentrations as described for Fc-VEGFR in animal models of cancer (Lin J et al., Cancer Res. 2005; 65(15):6901-9).

HEK293 cells = assay: FGF-FGFR-dependent signaling in HEK293 cells (Western blot, immunoprecipitation); type: cell-based; conditions: HEK293 expressing wild-type FGFR4, within 6 hours

Molecule	expression of β-MHC protein in FGFR4−/− NMVM ([1]; immunoblot)	expression of β-MHC protein in wild-type NMVM ([1]; immunoblot)	cross-sectional area (size) of NMVM from FGFR4−/− mice ([1]; FGF 100 ng/ml, AngII 1 μM)	cross-sectional area of wild-type NMVM ([1]; FGF 100 ng/ml, AngII 1 μM)	cardiac weight/tibial length (C57BL/6 mice; vs vehicle)	cross-sectional surface area of individual cardiac myocytes (C57BL/6 mice; vs vehicle)	expression of α-MHC and MCAD mRNA levels (C57BL/6 mice; vs vehicle)	expression of β-MHC, ANP and BNP (C57BL/6 mice; vs vehicle)	left ventricular wall thickness (C57BL/6 mice; vs vehicle)	FGF23 levels at the time of sacrifice (C57BL/6 mice; 16 hours after final injection, vs PBS)	RCAN1-4 levels (HEK293 cells)
B1	induced this effect	increased expression	increase the size	significant increases							
B2		increased expression		significant increases	significantly increased	increased	decreased expression	increased expression	increased	significantly increased	increases
